Measurements: patent US20210395718A1, “NOVEL KETOSE 3-EPIMERASE” (NATIONAL UNIVERSITY CORPORATION KAGAWA UNIVERSITY, priority 2018, published 2021)

Assays:
[1] = system: ketose 3-epimerase (present enzyme, purified enzyme of wild strain); assay: Substrate specificity of ketose 3-epimerase using 8 kinds of ketohexoses; assay type: biochemical, Arthrobacter histidinolovorans Y586-1 strain; settings: each substrate 0.1 M, phosphate buffer pH 8.0, 70° C., 10 min; epimerization activity for D-allulose = 100
Description: The substrate specificity of the present enzyme after purification was investigated using 8 kinds of ketohexoses. […] After a reaction at 70° C. for 10 minutes, the reaction mixture was analyzed by HPLC to measure a ketose produced by epimerization of each sugar.
Supposing that the epimerization activity for D-allulose is 100, the activity for each ketose is shown as a relative activity.

[2] = Ketose 3-epimerase activity ratio (T70/T50) at reaction temperature of 70° C. to 50° C.; assay type: biochemical; settings: crude recombinant enzyme; ratio of activity at 70° C. to activity at 50° C., 10 min reaction
Description: An enzyme having higher heat resistance than an amino acid substitution-free wild type enzyme can be obtained by introducing mutation into the gene of the ketose 3-epimerase of the present invention and substituting the corresponding amino acid residue with another amino acid residue by a site-directed mutagenesis operation to prepare various amino acid-substituted mutants. The heat resistance is evaluated by two indices, that is, a ketose 3-epimerase activity ratio (T70/T50) at the reaction temperatures of 70° C. to 50° C. and a residual activity after incubation at 60° C. for one hour.
Heat resistance of the present enzyme (crude recombinant enzyme) and the crude enzyme of the control enzyme was investigated by measuring an activity at 70° C. and an activity at 50° C. under the reaction conditions (10 minutes) used for determining the optimum temperature in the above 2 shown in Table 2 and finding their ratio (T70/T50).

[3] = Thermal stability: residual activity after incubation at 60° C. for one hour; assay type: biochemical; settings: crude recombinant enzyme; after incubation at 60° C. for 1 hour
Description: Thermal stability of the enzyme was investigated by measuring the activity of the enzyme after incubation at 60° C. for one hour and finding its relative activity supposing that the activity at 60° C. under the reaction conditions (10 minutes) used for determining the optimum temperature in the above 2 shown in Table 2 was 100. As heat treatment conditions, the crude enzyme solution, a buffer (50 mM tris-HCl, pH 7.5), and 2 mM MgCl2 were used to give a total amount of 200 p1 and after retaining at 60° C. for one hour, the reaction mixture was cooled for 10 minutes in ice water. The residual enzyme activity was then measured by the conventional method.
The activity of each of the present enzyme (crude recombinant enzyme) and the crude enzyme of the control enzyme after incubation at 60° C. for 1 hour was measured and a relative activity of it was determined supposing that the activity at 60° C. under the reaction conditions (10 minutes) for determining the optimum temperature in the above 2 shown in Table 2 is 100. The relative activity was used as a heat resistance index of the enzyme. As heat treatment conditions, the crude enzyme solution, a buffer (50 mM tris-HCl, pH 7.5), and 2 mM MgCl2 were used to give a total amount of 200 p1 and after retaining at 60° C. for one hour, the reaction mixture was cooled for 10 minutes in ice water. The residual enzyme activity was measured by the conventional method.

Molecule | Relative activity (%) [1] | T70/T50 [2] | Residual activity (%) [3]
O=C(CO)[C@H](O)[C@H](O)[C@H](O)CO [D-allulose] | 100.0% |  | 
O=C(CO)[C@@H](O)[C@H](O)[C@H](O)CO [D-fructose] | 43.4% |  | 
O=C(CO)[C@H](O)[C@@H](O)[C@H](O)CO [D-sorbose] | trace |  | 
O=C(CO)[C@@H](O)[C@@H](O)[C@H](O)CO [D-tagatose] | 72.2% |  | 
O=C(CO)[C@@H](O)[C@@H](O)[C@@H](O)CO [L-allulose] | 27.1% |  | 
O=C(CO)[C@H](O)[C@@H](O)[C@@H](O)CO [L-fructose] | trace |  | 
O=C(CO)[C@@H](O)[C@H](O)[C@@H](O)CO [L-sorbose] | trace |  | 
O=C(CO)[C@H](O)[C@H](O)[C@@H](O)CO [L-tagatose] | 59.2% |  | 
Ketose 3-epimerase mutant 36: amino acid-substituted mutant of SEQ ID NO: 1 (protein, Arthrobacter histidinolovorans) MKIGCHGLVWTGRFDAEGIRYSVQKTKEAGFDLIEFPLMDPFSFDVATAKSALAEHGLTASASLGLSEATDVSSEDPAIVKAGEELLNRALDVVAELGATDFCGVIYSAMKKYMEPATEQGLSNSKAAVGRVVDRAAGLGINVSLEVVNRYETNVLNTGRQALSYLSDVKRPNLGVHLDTYHMNIEESDMFSPVLDTAEALKYVHIGESHRGYLGTGSVDFDNFFKALGRIGYDGPVVFESFSSAVVAPDLSRMLGIWRNLWADNEELGAHANAFIRDKLTAIKTIELH |  | 1.30 | 57.0%
Ketose 3-epimerase mutant 6: amino acid-substituted mutant of SEQ ID NO: 1 (protein, Arthrobacter histidinolovorans) MKIGCHGLVWTGRFDAEGIRYSVQKTKEAGFDLIEFPLMDPFSFDVATAKSALAEHGLTASASLGLSEATDVSSEDPAIVKAGEELLNRALDVLAELGATDFCGVIYSAMKKYMEPATEQGLSNSKAAVGRVVDRAAGLGINVSLEVVNRYETNVLNTGRQALSYLSDVKRPNLGVHLDTYHMNIEESDMFSPVLDTAEALKYVHIGESHRGYLGTGNVDFDNFFKALGRIGYDGPVVFESFSSAVVAPDLSRMLGIWRNLWADNEELGAHANAFIRDKLTAIKTIELH |  | 2.05 | 101.2%
Ketose 3-epimerase mutant 5: amino acid-substituted mutant of SEQ ID NO: 1 (protein, Arthrobacter histidinolovorans) MKIGCHGLVWTGRFDAEGIRYSVQKTKEAGFDLIEFPLMDPFSFDVATAKSALAEHGLSVSASLGLSEATDVSSEDPAIVKAGEELLNRALDVLAELGATDFCGVIYSAMKKYMEPATEQGLSNSKAAIGRVVDRAAGLGINVSLEVVNRYETNVLNTGRQALSYLSDVKRPNLGVHLDTYHMNIEESDMFSPVLDTAEVLKYVHIGESHRGYLGTGSVDFDNFFKALGRIGYDGPVVFESFSSAVVAPDLSRMLGIWRNLWADNEELGAHANAFIRDKLTAIKTIELH |  | 2.07 | 85.1%
Ketose 3-epimerase mutant 1: amino acid-substituted mutant of SEQ ID NO: 1 (protein, Arthrobacter histidinolovorans) MKIGCHGLVWTGRFDAEGIRYSVQKTKEAGFDLIEFPLMDPFSFDVATAKSALAEHGLSVSASLGLSEATDVSSEDPAIVKAGEELLNRALDVLAELGATEFCGVIYSAMKKYMEPATEQGLSNSKAAIGRVVDRAAGLGINVSLEVVNRYETNVLNTGRQALSYLSDVKRPNLGVHLDTYHMNIEESDMFSPVLDTAEVLKYVHIGESHRGYLGTGNVDFDNFFKALGRIGYDGPVVFESFSSAVVAPDLSRMLGIWRNLWADNEELGAHANAFIRDKLTAIKTIELH |  | 2.37 | 74.1%
Ketose 3-epimerase mutant 4: amino acid-substituted mutant of SEQ ID NO: 1 (protein, Arthrobacter histidinolovorans) MKIGCHGLVWTGRFDAEGIRYSVQKTKEAGFDLIEFPLMDPFSFDVATAKSALAEHGLSVSASLGLSEATDVSSEDPAIVKAGEELLNRALDVLAELGATDFCGVIYSAMKKYMEPATEQGLSNSKAAVGRVVDRAAGLGINVSLEVVNRYETNVLNTGRQALSYLSDVKRPNLGVHLDTYHMNIEESDMFSPVLDTAEVLKYVHIGESHRGYLGTGNVDFDNFFKALGRIGYDGPVVFESFSSAVVAPDLSRMLGIWRNLWADNEELGAHANAFIRDKLTAIKTIELH |  | 2.08 | 123.2%
Ketose 3-epimerase mutant 2: amino acid-substituted mutant of SEQ ID NO: 1 (protein, Arthrobacter histidinolovorans) MKIGCHGLVWTGRFDAEGIRYSVQKTKEAGFDLIEFPLMDPFSFDVATAKSALAEHGLTASASLGLSEATDVSSEDPAIVKAGEELLNRALDVLAELGATDFCGVIYSAMKKYMEPATEQGLSNSKAAVGRVVDRAAGLGINVSLEVVNRYETNVLNTGRQALSYLSDVKRPNLGVHLDTYHMNIEESDMFSPVLDTAEVLKYVHIGESHRGYLGTGNVDFDNFFKALGRIGYDGPVVFESFSSAVVAPDLSRMLGIWRNLWADNEELGAHANAFIRDKLTAIKTIELH |  | 2.31 | 83.3%
Ketose 3-epimerase mutant 37: amino acid-substituted mutant of SEQ ID NO: 1 (protein, Arthrobacter histidinolovorans) MKIGCHGLVWTGRFDAEGIRYSVQKTKEAGFDLIEFPLMDPFSFDVATAKSALAEHGLTASASLGLSEATDVSSEDPAIVKAGEELLNRALDVLAELGATDFCGVIYSSMKKYMEPATEQGLSNSKAAVGRVVDRAAGLGINVSLEVVNRYETNVLNTGRQALSYLSDVKRPNLGVHLDTYHMNIEESDMFSPVLDTAEALKYVHIGESHRGYLGTGSVDFDNFFKALGRIGYDGPVVFESFSSAVVAPDLSRMLGIWRNLWADNEELGAHANAFIRDKLTAIKTIELH |  | 1.07 | 63.3%
Ketose 3-epimerase mutant 3: amino acid-substituted mutant of SEQ ID NO: 1 (protein, Arthrobacter histidinolovorans) MKIGCHGLVWTGRFDAEGIRYSVQKTKEAGFDLIEFPLMDPFSFDVATAKSALAEHGLTASASLGLSEATDVSSEDPAIVKAGEELLNRALDVLAELGATEFCGVIYSAMKKYMEPATEQGLSNSKAAIGRVVDRAAGLGINVSLEVVNRYETNVLNTGRQALSYLSDVKRPNLGVHLDTYHMNIEESDMFSPVLDTAEVLKYVHIGESHRGYLGTGSVDFDNFFKALGRIGYDGPVVFESFSSAVVAPDLSRMLGIWRNLWADNEELGAHANAFIRDKLTAIKTIELH |  | 2.11 | 94.5%
